US20110165265A1, “TRAIL VARIANTS FOR TREATING CANCER” (FUNDACIÓ GENÒMICA (CRG), priority 2007, published 2011)
“Also recorded” adds a separate entry of the source.

T1: DcR2 (Homo sapiens, UniProt Q9UBN6)
T1 construct: soluble, recombinant DcR1-Ig (sDcR1) and DcR2-Ig (sDcR2); purchased R&D Systems
T1 sequence (Q9UBN6 56-211 limits assumed): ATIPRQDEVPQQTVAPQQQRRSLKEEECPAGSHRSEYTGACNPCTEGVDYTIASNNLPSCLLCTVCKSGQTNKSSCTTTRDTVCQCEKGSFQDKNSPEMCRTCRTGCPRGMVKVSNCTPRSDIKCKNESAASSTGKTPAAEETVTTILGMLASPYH

B1: wtTRAIL: wild-type soluble recombinant human TRAIL, amino acids 114-281 (SEQ ID NO: 3) (protein, listed as Homo sapiens)
chain: MVRRGRVAAHTGTRGRSNTSSNSKNKAGRKNSWSSRSGHSSNHRNGVHKGYYYSTYRKNTKNDKMVYYKYTSYDMKSARNSCWSKDAYGYSYGGKNDRVSVTNHDMDHASGAVG
modifications: TRAIL 114-281
B2: D269HE195R: rhTRAIL (114-281) carrying mutations D269H and E195R; DR5-selective TRAIL variant (protein)
chain: MVRERGPQRVAAHITGTRGRSNTLSSPNSKNEKALGRKINSWESSRSGHSFLSNLHLRNGELVIHEKGFYYIYSQTYFRFQERIKENTKNDKQMVQYIYKYTSYPDPILLMKSARNSCWSKDAEYGLYSIYQGGIFELKENDRIFVSVTNEHLIDMHHEASFFGAFLVG

Key:
LoVo cells = assay: Cell survival / sensitivity of LoVo; assay type: cell-based
Description: C) Effect of increasing concentration of 5-Flurouracil on Lovo cells.

Colo205 cells [1] = assay: DEVDase (caspase) activity in Colo205; assay type: cell-based, human; conditions: Colo205, 5 mM aspirin 24 h
Method: (A) Aspirin induces expression of DR5, DcR1 and DcR2 on the cell surface. Colo205 cells were treated with 5 mM aspirin for 24 h and cell surface expression of DR4, DR5, DcR1 and DcR2 was measured by immunostaining and detected with flow cytometry. The histograms shown include isotype control (black, open peak), untreated Colo205 (grey, closed peak) and aspirin-treated Colo205 (grey, open peak) samples. The histograms are representatives of three independent experiments. […] DEVDase activity was expressed as average nmol AMC released per minute by 1 mg total cellular protein±SD of 3 independent experiments.
In order to determine the cell surface expression of each of the TRAIL receptors on A2780 carcinoma cells, cells were washed twice in PBS containing 1% BSA and then incubated with monoclonal antibodies to DR4, DR5, DcR1 or DcR2 (Alexis) for 40 min. After two wash steps with PBS/BSA, anti-mouse IgG-FITC (Sigma) secondary antibody was added for 30 min. All incubations were carried out on ice. Negative controls contained isotype control antibody. Cells were analyzed by a FacsCalibur flow cytometer. […] Substrate cleavage leading to the release of free AMC was monitored at 37° C. at 60 sec intervals for 25 cycles using a Wallac multilabel counter (excitation 355 nm, emission 460 nm). […]

SW948 cells = assay: Cell survival / sensitivity of SW948; assay type: cell-based
Colo205 cells [2] = assay: Annexin V apoptosis in Colo205 after PI3K inhibition; assay type: cell-based, human; conditions: 20 μM LY294002 15-18 hours, ligand 0.1 μg/ml 3 h
Method: Modulation of TRAIL and D269H/E195R induced apoptosis by PI3K inhibition in Colo205, as assessed by Annexin V assay. Cells were pre-incubated for 15-18 hours with 20 μM LY294002, then either left untreated or exposed to rhTRAIL (0.1 μg/ml) or D269H/E195R (0.1 μg/ml) for 3 additional hours before harvest.

DR4 = target: T2, DR4 (Homo sapiens, UniProt O00220); conditions: cited from earlier work
T2 construct: the more commonly used dimeric TRAIL-receptor-IgG Fc chimeric constructs
T2 sequence (O00220 24-239 limits assumed): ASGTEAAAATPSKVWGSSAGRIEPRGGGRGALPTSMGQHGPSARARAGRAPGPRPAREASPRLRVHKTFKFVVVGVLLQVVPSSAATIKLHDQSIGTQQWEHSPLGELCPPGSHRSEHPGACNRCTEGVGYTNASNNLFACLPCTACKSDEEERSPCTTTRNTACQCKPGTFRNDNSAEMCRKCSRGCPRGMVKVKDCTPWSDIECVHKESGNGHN

Colo205 tumors = Colo205 tumors in athymic nude mice; assay type: in vivo; conditions: for anti-tumor effect, single therapy: 1 and 5 mg/kg IP
Method: The anti-tumor effect of rhTRAIL WT and D269HE195R was tested in a small number of athymic nude mice carrying a tumor of Colo205 cells (n=3 to 5 per group). The rhTRAIL proteins were tested in doses of 1 and 5 mg/kg, given by intraperitoneal injections for 2×5 days (day 1-5 and 8-12) with a daily doses of aspirin (in the same syringe as protein).
In a third study the combination between TRAIL and aspirin was tested. […] Both were tested in doses of 1 and 5 mg/kg, given by intraperitoneal injections for 2×5 days (day 1-5 and 8-12) with daily doses of aspirin (in the same syringe as protein). Data is only presented until day 13, because of too many fluctuations and mice dying after this day.

[3] = tested on: HCT15, HT29 and RKO cells; assay: Cell survival of HCT15, HT29 and RKO; assay type: cell-based
DcR2 = target: T1, DcR2; conditions: cited from earlier work
HeLa xenografts = HeLa xenografts in athymic nude mice; assay type: in vivo; conditions: start at +/−150 mm3
Description: Xenografts of the HeLa cervical cancer cell line were established with matrigel in athymic nude mice. Treatment was started when tumor volume was +/−150 mm3.

A2780-Luc xenografts = assay: IP A2780-Luc xenografts, bioluminescence imaging; conditions: for mean signal reduction as to vehicle treated mice: day 16, IP treatment; for light emission (bioluminescent signal): day 16, mean±SEM; for median survival: surrogate endpoint signal ≧3.1×10^8
Method: Visualization of response to TRAIL, TRAIL-DR5, cisplatin and to the combination of either ligand with cisplatin by means of bioluminescence imaging. Nude mice were inoculated IP with 2×10^6 A2780-Luc cells. After 5 days treatment was initiated; cisplatin (4 mg/kg IP) or vehicle at day 5 and 12, TRAIL, TRAIL-DR5 (5 mg/kg IP) or vehicle at day 5-10 and 12-16, or a combination of TRAIL or TRAIL-DR5 with cisplatin.
Female nude mice (Hsd:Athymic Nude-nu) were obtained from Harlan Nederland (Horst, The Netherlands) at 6-8 weeks of age (˜21 g). Inoculation was performed after 10 days of acclimatization.
Imaging was conducted with the IVIS 100 series (Xenogen Corporation Alameda, Calif.), composed of a cooled charge-coupled device camera connected to a light tight black chamber. Before in vivo imaging animals were anesthetized with 4% isoflurane and injected IP with D-luciferin (150 mg/kg, Xenogen) reconstituted in sterile PBS. Mice were placed in prone position on a warmed stage (37° C.) in the imaging chamber, and grayscale reference images were obtained under dim illumination. Pseudocolor images representing bioluminescent intensity were acquired with Livinglmage software (version 2.50, Xenogen) 10 and 15 min after D-luciferin injection in complete darkness. These images were superimposed on the grayscale images for analysis with Igor Pro software (version 4.09, WaveMetrics, Lake Oswego, Oreg.). All bioluminescence imaging (BLI) data are depicted in radiance units (photons/sec/cm^2/sr) enabling absolute comparisons between bioluminescent images and represent final data obtained after subtraction of the background signal.

HeLa cells = assay: Cell survival / sensitivity of HeLa; assay type: cell-based
Method: (B) Effect of increasing of Bortezomib on cell viability. Hela cells appear to tolerate higher concentration of Bortezomib compared to Caski and SIHA cells (C) Combination therapy with 10 nM Bortezomib incubated for 24 h lead to further decreases in cell viability in cells treated with both TRAIL and two of the DR5 mutants (D) Radiation therapy in combination with TRAIL or the DR5 mutants further decrease cell viability in HELA cells. The DR5 mutant show decrease cell viability at lower concentration of ligand compared to TRAIL.

SiHa cells = assay: Cell survival / sensitivity of SiHa; assay type: cell-based
Description: (A) Effect of increasing concentration of Bortezomib on cell survival. […] (C) 10Gy Radiotherapy had no effect in further decreasing cell viability of SIHA cells in both TRAIL and DR5 mutant treated cells.

[4] = lowest dose 1 mg/kg + 200 mg/kg aspirin

Molecule	cell viability, single agent (LoVo cells)	effect of 5-FU and Aspirin on induced apoptosis (LoVo cells)	sensitisation by aspirin (Colo205 cells [1])	cell viability, single agent (SW948 cells)	change of sensitivity after PI3K inhibition (Colo205 cells [2])	effect of combination with aspirin (Colo205 tumors; 5 mg/kg + 200 mg/kg aspirin)	effect of combination with aspirin (Colo205 tumors; [4])	cell viability with or without 5-Flurouracil [3]	effect on xenografts (HeLa xenografts)	mean signal reduction as to vehicle treated mice (A2780-Luc xenografts) [%]	light emission (bioluminescent signal) (A2780-Luc xenografts)	median survival (A2780-Luc xenografts) [days]	cell viability, single agent (HeLa cells)	effect of radiotherapy and Bortezomib on induced apoptosis (HeLa cells)	effect of combination with bortezomib (SiHa cells)	sensitivity, single agent (SiHa cells)	further results
B1	equal decrease in cell viability	enhanced apoptosis	increased the sensitivity	greater loss in cell viability compared to that of the DR5 mutant at higher concentrations	slightly decreased	additive effect	additive effect	equal decrease in cell viability	No effect was observed	48.8	2.3×10^8±3.1×10^7 radiance units	21	comparable	enhanced apoptosis	increased tumor cell death	resistant	effect of 5-FU on sensitivity (SW948 cells): enhanced sensitivity; sensitivity, single agent comparison (SW948 cells): higher sensitivity; Kd (DR4; surface plasmon resonance, read-out: binding affinity Kd for DR4): 2.5 nM; Kd (DcR2; surface plasmon resonance, read-out: binding affinity Kd for DcR2): ~8 nM
B2	equal decrease in cell viability	enhanced apoptosis	much more pronounced	decreased cell viability	enhanced	not visible	additive effect	equal decrease in cell viability	No effect was observed	68.3	1.4×10^8±1.3×10^7 radiance units	21	comparable	enhanced apoptosis	increased tumor cell death	resistant	sensitivity, single agent comparison (LoVo cells): higher sensitivity; effect of Aspirin (SW948 cells): enhanced the effect; binding to DR4 (DR4; earlier work referred to): virtually absent; anti-tumor effect, single therapy (Colo205 tumors; listed as TRAIL-DR5): nice response; anti-tumor effect, single therapy (Colo205 tumors; listed as mutant TRAIL): reduces the tumor growth; also recorded: some positive effect on the tumor growth; affinity for DcR2 (DcR2; earlier work referred to): reduced
